Read-outs that look alike come from different tables or passages of the source.

These results are taken from US20130072665A1 (Amgen, published 2013).

For assay [1], the target named is T1, PCSK9 ProCat (31-449 of SEQ ID NO: 3) (human, UniProt Q8NBP7 27-449).
T1 construct: From PCSK9 449TEV after rTEV cleavage: GAMG-PCSK9 (31-449)-ENLYFQ; Written as one chain; autocatalysis between 152 and 153 splits pro-domain and catalytic domain; also called procat PCSK9; PCSK9 31-449
Description: domain binding ELISA (coated antibody captures the PCSK9 form; OD650). (In general: In an ELISA, binding on a coated surface is turned into a signal by an enzyme label.)

Assay [2] concerns the target T2, PCSK9 V domain (450-692 of SEQ ID NO: 3) (human, UniProt Q8NBP7 450-692).
T2 construct: also called v-domain PCSK9
T2 chain: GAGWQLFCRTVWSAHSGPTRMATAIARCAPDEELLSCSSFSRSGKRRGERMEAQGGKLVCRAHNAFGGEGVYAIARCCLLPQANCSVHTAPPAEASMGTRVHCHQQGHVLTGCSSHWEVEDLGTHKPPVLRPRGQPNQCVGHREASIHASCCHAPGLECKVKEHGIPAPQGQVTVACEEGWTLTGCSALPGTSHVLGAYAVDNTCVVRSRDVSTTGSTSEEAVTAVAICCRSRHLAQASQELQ
The assay is described as above.

Assay [3] concerns the target T3, human PCSK9 (proprotein convertase subtilisin kexin type 9) (human, UniProt Q8NBP7 31-692).
T3 construct: Used untagged, biotinylated, V5/His- or His-tagged depending on the assay; also called hPCSK9; huPCSK9
Description: BIAcore kinetic assay 2. On the technique in general: In SPR one partner is held on a chip, and binding of the other changes the refractive index at the surface.

Assay [4] has as its target T3, human PCSK9 (proprotein convertase …). Nature of the assay: BIAcore kinetic assay 2, antibody captured, pH 5.5.
Assay [5] shares this target. Description: BIAcore kinetic assay 2, antibody captured, pH 6.0.
For assay [6] the target is unchanged. Nature of the assay: BIAcore kinetic assay 2, antibody captured, pH 7.4.
A further assay concerns the target T4, 16F12, anti-PCSK9 huIgG4.
T4 construct: from hybridoma; also called 16F12 IgG4; 16F12.1
Description: KinExA solution equilibrium, % free 16F12 (100 pM) against [mPCSK9]. Background: A kinetic exclusion assay measures how much of one partner remains free in solution.

Another assay has as its target T5, 31H4, anti-PCSK9 huIgG4.
T5 construct: from hybridoma
Description: KinExA solution equilibrium, % free 31H4.1 (100 pM) against [mPCSK9].

In assay [7] the target is T3, human PCSK9 (proprotein convertase …). Nature of the assay: BIAcore solution equilibrium, pH 5.5.
Assay [8] has the same target. Description: BIAcore solution equilibrium, pH 6.0.
For assay [9] the target is unchanged. Description: BIAcore solution equilibrium, pH 7.4.
Assay [10] has the same target. Description: BIAcore kinetic assay 1, His-tagged huPCSK9 captured, pH 5.5.
The target is the same in assay [11]. Description: BIAcore kinetic assay 1, His-tagged huPCSK9 captured, pH 6.0.
Assay [12] shares this target. Nature of the assay: BIAcore kinetic assay 1, His-tagged huPCSK9 captured, pH 7.4.
Assay [13] deals with T1, PCSK9 ProCat (31-449 of SEQ ID NO: 3). Nature of the assay: domain binding ELISA (coated antibody captures the PCSK9 form; OD650). The source holds these as a separate data set.
Assay [14] addresses T2, PCSK9 V domain (450-692 of SEQ ID NO: 3). Described as above.
The target is the same in assay [15]. Description: native PAGE gel shift.

T4 sequence (VH, as listed by the source, chain 1 of 2): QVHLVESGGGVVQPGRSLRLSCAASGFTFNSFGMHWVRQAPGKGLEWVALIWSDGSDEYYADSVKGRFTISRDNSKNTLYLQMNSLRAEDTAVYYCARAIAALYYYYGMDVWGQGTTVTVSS
T4 sequence (V domain, as listed by the source, chain 2 of 2): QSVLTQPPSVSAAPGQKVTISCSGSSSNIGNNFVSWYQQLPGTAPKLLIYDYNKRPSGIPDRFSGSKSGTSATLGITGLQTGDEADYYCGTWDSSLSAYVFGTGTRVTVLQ

B1: 30A4 (antibody, V domains shown)
VH: QVQLVESGGGVVQPGRSLRLSCAASGFTFSSYGMHWVRQAPGKGLEWVAVIWYDGSDKYYADSVKGRFTISRDNSKNTLYLQMNSLRAEDTAVYYCARETGPLKLYYYGMDVWGQGTTVTVSS
VL: DIVMTQSPLSLSVTPGEPPSISCRSSQSLLHSNGYNFLNWYLQKPGQSPQLLIYLGSHRASGVPDRFSGSGSGTDFTLEISRVEAEDVGVYYCMQVLQTPFTFGPGTKVDIK
B1: the binding result in [1] is “binds”; in assay [2], “no binding”.

B2: 27B2 (antibody, V domains shown)
VH: QVQLQESGPGLVKPSQTLSLTCTVSGGSISSGGYYWSWIRQHPGKGLEWIGYIYNSGSTYYNPSLKSRVTISVDTSKNQFSLKLSSVTAADTAVYYCAREDTAMVPYFDYWGQGTLVTVSS
VL: QSVLTQPPSVSGAPGQRVTISCTGSSSNIGAHYDVHWYQQVPGTAPKLLIYGNTYRPSGVPDRFSGSKSGTSASLAITGLQAEDEADYYCQSYDNSLSGVVFGGGTKLTVL
notes: also called 27B2.3; 27B2.3-7.4
Take B2: the “off rate ratio pH 5.5/pH 7.4” value in [3] stood at 1.4. Further, in [3], the “off rate ratio pH 6.0/pH 7.4” value was determined as 1.3. Moreover, the results for the koff in assay [4], in [5] and in assay [6] were 0.00052 s⁻¹, 0.00051 s⁻¹ and 0.00038 s⁻¹, respectively.

B3: mouse PCSK9 (enzyme, UniProt Q80W65 35-694, looked up, not shown: small tags and cut ends)
chain: QDEDGDYEELMLALPSQEDGLADEAAHVATATFRRCSKEAWRLPGTYIVVLMEETQRLQIEQTAHRLQTRAARRGYVIKVLHIFYDLFPGFLVKMSSDLLGLALKLPHVEYIEEDSFVFAQSIPWNLERIIPAWHQTEEDRSPDGSSQVEVYLLDTSIQGAHREIEGRVTITDFNSVPEEDGTRFHRQASKCDSHGTHLAGVVSGRDAGVAKGTSLHSLRVLNCQGKGTVSGTLIGLEFIRKSQLIQPSGPLVVLLPLAGGYSRILNAACRHLARTGVVLVAAAGNFRDDACLYSPASAPEVITVGATNAQDQPVTLGTLGTNFGRCVDLFAPGKDIIGASSDCSTCFMSQSGTSQAAAHVAGIVARMLSREPTLTLAELRQRLIHFSTKDVINMAWFPEDQQVLTPNLVATLPPSTHETGGQLLCRTVWSAHSGPTRTATATARCAPEEELLSCSSFSRSGRRRGDWIEAIGGQQVCKALNAFGGEGVYAVARCCLVPRANCSIHNTPAARAGLETHVHCHQKDHVLTGCSFHWEVEDLSVRRQPALRSRRQPGQCVGHQAASVYASCCHAPGLECKIKEHGISGPSEQVTVACEAGWTLTGCNVLPGASLTLGAYSVDNLCVARVHDTARADRTSGEATVAAAICCRSRPSAKASWVQ
notes: biotinylated, tag not mentioned, in the hybridoma screen; also called mPCSK9-8xHIS; mPCSK9
B3: the “IC50 (read off the curve)” value with 16F12, anti-PCSK9 huIgG4 was approximately 400 pM; with 31H4, anti-PCSK9 huIgG4, approximately 600 pM.

B4: 23B5 (antibody, V domains shown)
VH: EVQLLESGGGLVQPGGSLRLSCAASGFTFSSYAMNWVRQAPGKGLEWVSTISGSGDNTYYADSVKGRFTISRDNSKNTLYLQMNSLRAEDTAVYYCAKKFVLMVYAMLDYWGQGTLVTVSS
VL: DILMTQSPSSLSASVGDRVTITCRASQSISSYLNWYQQKPGKAPKVLIYAASSLQSGVPSRFSGSGSGTDFTLTINSLQPEDFATYYCQQSYSSPITFGQGTRLEIK
Regarding B4, the values for the Kd in assay [7], in assay [8] and in [9] were 280 pM, 200 pM and 100 pM, respectively. Moreover, the binding result in assay [1] is “binds”; in [2], “no binding”.

B5: 25G4 (antibody, V domains shown)
VH: EVQLLESGGGLVQPGGSLRLSCAASGFTFSSYAMNWVRQAPGKGLEWVSTISGSGGNTYYADSVKGRFTISRDNSKNTLYLQMNSLRAEDTAVYYCAKKFVLMVYAMLDYWGQGTLVTVSS
VL: DIQMTQSPSSLSASVGDRVTITCRASQSISIYLNWYQQKPGKAPYLLIYAAASLQSGVPSRFSGSGSGTDFTLTISSLQPEDFATYYCQQSYSAPITFGQGTRLEIK
On to B5, for which the binding result in assay [1] was “binds”; in assay [2], “no binding”.

B6: 13H1 (antibody, V domains shown)
VH: QVQLQQSGPGLVKPSQTLSLTCAISGDSVSSNSAAWNWIRQSPSRGLEWLGRTYYRSKWYKNYSVSVKSRITINPDTSKNQFSLQLNSVTPGDTAVYYCARGGPTAAFDYWGQGTLVTVSS
VL: LSALTQPASVSGSPGQSITISCTGTSSDVGNYNLVSWYQQYSGKAPKLMIYEVSKRPSGVSNRFSGSKSGNTASLTISGLQAEDEADYYCCSYAGSSTLVFGGGTKLTVL
On to B6, for which the binding result in [1] is on record as “binds”; in [2], “no binding”.

B7: 1A12 (antibody, V domains shown)
VH: EVQLVESGGGLVQPGGSLRLSCAASGLTFSNFWMSWVRQAPGKGLEWVANIKQDGSEKYYVDSVKGRFTISRDNAKNSLYLQMNSLRAEDTAVYSCTRESNWGFAFDIWGQGTMVTVSS
VL: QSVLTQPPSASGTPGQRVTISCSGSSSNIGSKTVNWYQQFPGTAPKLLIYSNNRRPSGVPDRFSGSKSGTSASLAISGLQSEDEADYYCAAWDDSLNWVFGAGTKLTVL
notes: also called 1A12.2
B7: the Kd turned out to be 1100 pM in assay [7]; 1000 pM in assay [8]; 560 pM in [9]; 1400 pM in assay [10]; 1300 pM in [11]; 400 pM in [12]. Besides, the binding result is “binds” in assay [13] and “no binding” in assay [14].

B8: 9H6 (antibody, V domains shown)
VH: EVQLVESGGGLVQPGGSLRLSCAASGFTFSRYWMSWVRQAPGKGLEWVANIKHDGSEKYYVDSVKGRFTISRDNAKNSLYLQMNSLRAEDTAVYYCARESNWGFAFDVWGHGTMVTVSS
VL: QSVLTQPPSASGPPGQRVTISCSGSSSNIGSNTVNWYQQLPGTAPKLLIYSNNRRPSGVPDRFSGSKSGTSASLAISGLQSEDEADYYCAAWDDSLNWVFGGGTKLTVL
On to B8, for which the Kd in [7] was found to be 1400 pM; in assay [8], 1300 pM; in [9], 700 pM. Also, the binding result is “binds” in [1] and “no binding” in assay [2].

B9: 21B12 (antibody, V domains shown)
VH: QVQLVQSGAEVKKPGASVKVSCKASGYTLTSYGISWVRQAPGQGLEWMGWVSFYNGNTNYAQKLQGRGTMTTDPSTSTAYMELRSLRSDDTAVYYCARGYGMDVWGQGTTVTVSS
VL: QSALTQPASVSGSPGQSITISCTGTSSDVGGYNSVSWYQQHPGKAPKLMIYEVSNRPSGVSNRFSGSKSGNTASLTISGLQAEDEADYYCNSYTSTSMVFGGGTKLTVL
notes: lambda light chain; also called ABP 21B12; Ab 21B12
Turning to B9, the binding result in assay [15] is “no binding”.

B10: 27H5 (antibody, V domains shown)
VH: QVQLVQSGAEVKRPGASVKVSCKASGYTLTSYGISWVRQAPGQGLEWMGWISVYNGNTNYAQKVQGRVTMTTDTSTSTVYMELRSLSSDDTAVYYCARGYGMDVWGQGTTVTVSS
VL: QSALTQPASVSGSPGQSITISCTGTSSDVGGYNSVSWYQQHPGKPPKLMIYEVSNRPSGVSIRFSGSKSGNTASLTISGLQAEDEADYFCSSYTSTSMVFGGGTKLTVL
For the molecule B10, the binding result in assay [1] is on record as “binds”; in [2], “no binding”.

B11: 26H5 (antibody, V domains shown)
VH: QVQLVQSGAEVKKPGASVKVSCKASGYTLTSYGISWVRQAPGQGLEWMGWISFYNGNTNYAQKVQGRVTMTTDTSTSTVYMELRSLRSDDTAVYYCARGYGMDVWGQGTTVTVSS
VL: QSALTQPASVSGSPGQSITISCTGTSSDVGGYNSVSWYQQHPGKPPKLMIYEVSNRPSGVSIRFSGSKSGNTASLTISGLQAEDEADYFCSSYTSTSMVFGGGTKLTVL
notes: also called 26H5-7.4
Consider B11, for which the “off rate ratio pH 5.5/pH 7.4” value in [3] came to 0.5. In assay [3], the “off rate ratio pH 6.0/pH 7.4” value amounted to 0.8. Moreover, the koff in assay [4] was determined as 0.00026 s⁻¹; in assay [5] it was 0.00047 s⁻¹; in assay [6], 0.00056 s⁻¹. The binding result is “binds” in [13] and “no binding” in assay [14].

Usually koff stands for a measure of how fast the partners let go of each other. The low end stands for slow dissociation, the high end for fast dissociation. A word on the Kd: it is the free concentration of one partner at which half of the binding sites on the other are occupied at equilibrium, for simple one-to-one binding. Read a low Kd as higher affinity.
